Results published in US20230220042A1 (SHANGHAI JIAO TONG UNIVERSITY SCHOOL OF MEDICINE, published 2023).
Residue numbers refer to the chain shown, from its start. Names and notes keep the numbering of the source.

T1: Biotin-FcγRIIB (human, UniProt P31994 43-217, limits assumed, biotin-labelled)
T1 construct: Bought, biotin-labelled; used at 1 µg/ml for staining and sorting; also called human FcγRIIB; CD32b
T1 sequence (looked up): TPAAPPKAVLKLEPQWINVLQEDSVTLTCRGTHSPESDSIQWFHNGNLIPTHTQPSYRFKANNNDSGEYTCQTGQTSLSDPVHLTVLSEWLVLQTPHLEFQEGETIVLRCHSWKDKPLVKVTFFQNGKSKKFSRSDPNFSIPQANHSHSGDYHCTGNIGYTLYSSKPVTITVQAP

T2: Biotin-FcγRIIB (human FcγRIIB, Sino Biological) (human, UniProt P31994 43-217, limits assumed, biotin-labeled)
T2 construct: Used at 1 µg/ml with Streptavidin-APC for flow cytometry and sorting; also called CD32b
T2 sequence (looked up): T1 sequence (looked up)

B1: human IgG2 anti-mouse CD40 surface displayed antibody, Fc mutant V266A/P271G (antibody, name in EU numbering)
light chain (with the P2A rest): DTVLTQSPALAVSPGERVTISCRASDSVSTLMHWYQQKPGQQPKLLIYLASHLESGVPARFSGSGSGTDFTLTIDPVEADDTATYYCQQSWNDPWTFGGGTKLELKRTVAAPSVFIFPPSDEQLKSGTASVVCLLNNFYPREAKVQWKVDNALQSGNSQESVTEQDSKDSTYSLSSTLTLSKADYEKHKVYACEVTHQGLSSPVTKSFNRGECGSGATNFSLLKQAGDVEENPG
heavy chain: EVQLVESDGGLVQPGRSLKLPCAASGFTFSDYYMAWVRQAPTKGLEWVASISYDGSSTYYRDSVKGRFTISRDNAKSTLYLQMDSLRSEDTATYYCGRHSSYFDYWGQGVMVTVSSASTKGPSVFPLAPCSRSTSESTAALGCLVKDYFPEPVTVSWNSGALTSGVHTFPAVLQSSGLYSLSSVVTVPSSNFGTQTYTCNVDHKPSNTKVDKTVERKCCVECPPCPAPPVAGPSVFLFPPKPKDTLMISRTPEVTCVVVDASHEDGEVQFNWYVDGVEVHNAKTKPREEQFNSTFRVVSVLTVVHQDWLNGKEYKCKVSNKGLPAPIEKTISKTKGQPREPQVYTLPPSREEMTKNQVSLTCLVKGFYPSDIAVEWESNGQPENNYKTTPPMLDSDGSFFLYSKLTVDKSRWQQGNVFSCSVMHEALHNHYTQKSLSLSPGKLEPPPSTVSNMATVAVLVVLGAAIVTGAVVAFVMKMRRRNTGGKGGDYALAPGSQTSDLSLPDCKVMVHDPHSLA
notes: as m1; positions are Eu numbers; copies: 2 + 2
B2: human IgG2 anti-mouse CD40 surface displayed antibody, Fc mutant P271G/P329S (antibody, name in EU numbering)
light chain (with the P2A rest): B1 light chain (with the P2A rest)
heavy chain: B1 heavy chain with A261V, P324S
notes: as for B1
B3: human IgG2 anti-mouse CD40 surface displayed antibody, Fc mutant P271G/S298K (antibody, name in EU numbering)
light chain (with the P2A rest): B1 light chain (with the P2A rest)
heavy chain: B1 heavy chain with A261V, S293K
notes: as for B1
B4: human IgG2 anti-mouse CD40 surface displayed antibody, Fc mutant P271G/T299W (antibody, name in EU numbering)
light chain (with the P2A rest): B1 light chain (with the P2A rest)
heavy chain: B1 heavy chain with A261V, T294W
notes: as for B1
B5: human IgG2 anti-mouse CD40 surface displayed antibody, Fc mutant P271G/S298D (antibody, name in EU numbering)
light chain (with the P2A rest): B1 light chain (with the P2A rest)
heavy chain: B1 heavy chain with A261V, S293D
notes: as for B1
B6: human IgG2 anti-mouse CD40 surface displayed antibody, Fc mutant P271G/P331T (antibody, name in EU numbering)
light chain (with the P2A rest): B1 light chain (with the P2A rest)
heavy chain: B1 heavy chain with A261V, P326T
notes: as for B1
B7: human IgG2 anti-mouse CD40 surface displayed antibody, Fc mutant P271G/P331C (antibody, name in EU numbering)
light chain (with the P2A rest): B1 light chain (with the P2A rest)
heavy chain: B1 heavy chain with A261V, P326C
notes: as for B1
B8: human IgG2 anti-mouse CD40 surface displayed antibody, Fc mutant P271G/T299M (antibody, name in EU numbering)
light chain (with the P2A rest): B1 light chain (with the P2A rest)
heavy chain: B1 heavy chain with A261V, T294M
notes: as for B1
B9: human IgG2 anti-mouse CD40 surface displayed antibody, Fc mutant P271G/S298L (antibody, name in EU numbering)
light chain (with the P2A rest): B1 light chain (with the P2A rest)
heavy chain: B1 heavy chain with A261V, S293L
notes: as for B1
B10: human IgG2 anti-mouse CD40 surface displayed antibody, Fc mutant P271G/T299S (antibody, name in EU numbering)
light chain (with the P2A rest): B1 light chain (with the P2A rest)
heavy chain: B1 heavy chain with A261V, T294S
notes: as for B1
B11: human IgG2 anti-mouse CD40 surface displayed antibody, Fc mutant P271G/T299A (antibody, name in EU numbering)
light chain (with the P2A rest): B1 light chain (with the P2A rest)
heavy chain: B1 heavy chain with A261V, T294A
notes: as for B1
B12: human IgG2 anti-mouse CD40 surface displayed antibody, Fc mutant S267A/P271G (antibody, name in EU numbering)
light chain (with the P2A rest): B1 light chain (with the P2A rest)
heavy chain: B1 heavy chain with A261V, S262A
notes: as for B1
B13: human IgG2 anti-mouse CD40 surface displayed antibody, Fc mutant P271G/S298G (antibody, name in EU numbering)
light chain (with the P2A rest): B1 light chain (with the P2A rest)
heavy chain: B1 heavy chain with A261V, S293G
notes: as for B1
B14: human IgG2 anti-mouse CD40 surface displayed antibody, Fc mutant S267M/P271G (antibody, name in EU numbering)
light chain (with the P2A rest): B1 light chain (with the P2A rest)
heavy chain: B1 heavy chain with A261V, S262M
notes: as for B1
B15: human IgG2 anti-mouse CD40 surface displayed antibody, Fc mutant P271G/S298E (antibody, name in EU numbering)
light chain (with the P2A rest): B1 light chain (with the P2A rest)
heavy chain: B1 heavy chain with A261V, S293E
notes: as for B1
B16: human IgG2 anti-mouse CD40 surface displayed antibody, G327A/A330V (antibody, name in EU numbering)
light chain (with the P2A rest): B1 light chain (with the P2A rest)
heavy chain: B1 heavy chain with A261V, G266P, G322A, A325V
notes: m1 with these Fc mutations (Eu numbering); copies: 2 + 2
B17: human IgG2 anti-mouse CD40 surface displayed antibody, L328W (antibody, name in EU numbering)
light chain (with the P2A rest): B1 light chain (with the P2A rest)
heavy chain: B1 heavy chain with A261V, G266P, L323W
notes: m1 with this Fc mutation (Eu numbering); Not the anti-human OX40 antibody Mut_1, which carries the same Fc mutation; copies: 2 + 2
B18: human IgG2 anti-mouse CD40 surface displayed antibody, L328E/I332T (antibody, name in EU numbering)
light chain (with the P2A rest): B1 light chain (with the P2A rest)
heavy chain: B1 heavy chain with A261V, G266P, L323E, I327T
notes: as for B16
B19: human IgG2 anti-mouse CD40 surface displayed antibody, G327A/I332A (antibody, name in EU numbering)
light chain (with the P2A rest): B1 light chain (with the P2A rest)
heavy chain: B1 heavy chain with A261V, G266P, G322A, I327A
notes: as for B16
B20: human IgG2 anti-mouse CD40 surface displayed antibody, G327A/I332C (antibody, name in EU numbering)
light chain (with the P2A rest): B1 light chain (with the P2A rest)
heavy chain: B1 heavy chain with A261V, G266P, G322A, I327C
notes: as for B16
B21: human IgG2 anti-mouse CD40 surface displayed antibody, L328Y (antibody, name in EU numbering)
light chain (with the P2A rest): B1 light chain (with the P2A rest)
heavy chain: B1 heavy chain with A261V, G266P, L323Y
notes: m1 with this Fc mutation (Eu numbering); copies: 2 + 2
B22: human IgG2 anti-mouse CD40 surface displayed antibody, L328F (antibody, name in EU numbering)
light chain (with the P2A rest): B1 light chain (with the P2A rest)
heavy chain: B1 heavy chain with A261V, G266P, L323F
notes: as for B21
B23: human IgG2 anti-mouse CD40 surface displayed antibody, G327A/I332E (antibody, name in EU numbering)
light chain (with the P2A rest): B1 light chain (with the P2A rest)
heavy chain: B1 heavy chain with A261V, G266P, G322A, I327E
notes: as for B16
B24: human IgG2 anti-mouse CD40 surface displayed antibody, Fc mutant H268S (antibody, name in EU numbering)
light chain (with the P2A rest): B1 light chain (with the P2A rest)
heavy chain: B1 heavy chain with A261V, H263S, G266P
notes: as for B1
B25: human IgG2 anti-mouse CD40 surface displayed antibody, Fc mutant L328G (antibody, name in EU numbering)
light chain (with the P2A rest): B1 light chain (with the P2A rest)
heavy chain: B1 heavy chain with A261V, G266P, L323G
notes: as for B1

molecular target: T1, Biotin-FcγRIIB; assay: FACS sorting of displayed Fc library on biotin-FcγRIIB, NGS

Row | Enrichment factor (after/before sorting) | Increased factor a (enrichment factor/wild-type enrichment factor) | Binder
1 | 8.63 | 15 | B1
2 | 46.2 | 61.8 | B2
3 | 10.2 | 13.6 | B3
4 | 9.23 | 12.3 | B4
5 | 6.78 | 9.06 | B5
6 | 32.3 | 43.2 | B6
7 | 140 | 187 | B7
8 | 4.74 | 6.33 | B8
9 | 188 | 252 | B9
10 | 12 | 16 | B10
11 | 6.28 | 8.39 | B11
12 | 5.27 | 9.19 | B12
13 | 9.73 | 13 | B13
14 | 4.31 | 7.52 | B14
15 | 298 | 398 | B15

molecular target: T2, Biotin-FcγRIIB (human FcγRIIB, Sino …); assay: NGS after FACS sort of 3T3-displayed Library4 for biotin-FcγRIIB binding

Row | Enrichment factor (percentage after sorting/percentage before sorting) | Increased factor (enrichment factor/wild-type enrichment factor) | Binder
16 | 6.98 | 4.67 | B16
17 | 33.2 | 22.2 | B17
18 | 55.1 | 36.9 | B18
19 | 29.2 | 19.5 | B19
20 | 11.4 | 7.64 | B20
21 | 3.38 | 2.26 | B21
22 | 563 | 377 | B22
23 | 126 | 84.1 | B23

molecular target: T1, Biotin-FcγRIIB; assay: FACS sorting of displayed Fc library on biotin-FcγRIIB, NGS; reference P271G

Row | Increased factor 2 c Site 2 (combined/point mutation) | Increased factor 2 c Site 1 (combined/point mutation) | Binder
24 | 3.2 | – | B1
25 | – | 13.1 | B2
26 | – | 2.9 | B3
27 | – | 2.6 | B4
28 | – | 1.9 | B5
29 | – | 9.1 | B6
30 | – | 39.6 | B7
31 | – | 1.3 | B8
32 | – | 53.2 | B9
33 | – | 3.4 | B10
34 | – | 1.8 | B11
35 | 1.9 | – | B12
36 | – | 2.8 | B13
37 | 1.6 | – | B14
38 | – | 84.2 | B15

molecular target: T1, Biotin-FcγRIIB; assay: magnetic sorting on biotin-FcγRIIB with unlabelled activating FcγRs, NGS; LibraryMix #3
Protocol: 3T3 cells were collected by trypsin digestion, and a single cell suspension was prepared. […] The cells were incubated for 15 minutes on ice and then washed twice with MACS buffer and re-suspended in 100 μl MACS buffer. Twenty-five μl anti-Biotin magnetic beads were added, and the cells were incubated for 15 minutes on ice and then washed once with MACS buffer and re-suspended to 500 μl, and added to the LS column put in the magnetic field. The effluent was collected, washed with 3 mL of MACS buffer and collected; The LS column was then removed out of the magnetic field, and 5 mL of MACS buffer was used to rapidly elute the remaining cells from the sorting column to collect positive cells, which are the high I/A ratio cells.

Row | Enrichment factor (percentage after sorting/percentage before sorting) | Increased factor (mutation enrichment factor/wild-type enrichment factor) | Binder
39 | 7.85 | 6.95 | B24
40 | 3.01 | 2.67 | B25
